Reference: US20220323445A1, “REDUCING IMMUNOGENICITY TO PEGLOTICASE” (Horizon Therapeutics Ireland DAC, priority 2020, published 2022)

System: serum uric acid (sUA)
Assay: Serum uric acid (sUA) levels and sUA responders, open-label study of pegloticase with MTX (NCT03635957)
Type: in vivo, human
Procedure: The primary objective is to estimate the response rate during Month 6 (Weeks 20, 22, and 24), as measured by the sustained normalization of serum uric acid (SUA) to <6 mg/dL for at least 80% of the time during Month 6 in subjects receiving KXX with MTX.
The primary efficacy outcome endpoint is the sustained normalization of SUA to <6 mg/dL for at least 80% of the time during month 6 (weeks 20, 22, and 24) in subjects receiving KXX with MTX. This is slightly below the urate solubility threshold and this threshold has been the accepted standard for nearly all modern gout trials. Participants who achieve this endpoint were classified as “responders.” Serum uric acid (SUA) responders may also be defined as participants achieving and maintaining SUA <6 mg/dL for at least 80% of the time during Month 6 (Weeks 20, 22, and 24).
Blood samples may be collected prior to each pegloticase infusion for measurement of SUA levels using the Beckman Coulter AU System Uric Acid procedure. Participants were declared “non-responders” if there were SUA measures >6 mg/dL at 2 consecutive study visits beginning with the week 2 visit. […] If the SUA goal is not maintained before or at the 12-week mark, it was assumed that the participant had developed clinically relevant anti-pegloticase antibody and they received no further infusions. This assumption and subsequent discontinuation of pegloticase was consistent with the protocol of large phase III randomized controlled trials and the product label. A formal stopping rule was 2 occasions of SUA levels of greater than 6 mg/dL.
Clinical Chemistry—Blood samples were collected prior to each pegloticase infusion for measurement of SUA levels (primary efficacy parameter) using the Beckman Coulter AU System Uric Acid procedure. In this procedure uric acid is converted to hydrogen peroxide. Hydrogen peroxide reacts with reagent to produce a chromophore which is read bichromatically at 660/800 nm. The amount of dye formed is proportional to the uric acid concentration in the sample.
Serum samples for measurement of SUA levels were collected at the Screening Visit, the Week −4 Visit (prior to the first dose of MTX), and the Week −2 Visit during the MTX Run-in Period; within 48 hours prior to each pegloticase infusion and after the end of each pegloticase infusion prior to discharge from the site during the Pegloticase+IMM Period; at the non-infusion Week 52/End of Study/Early Termination Visits and at the Post Treatment 3 and 6 Month Follow-up Visits. Additional serum samples for SUA levels were collected at optional non-infusion (Frequent Sampling) Visits at Weeks 1 and 7. […] Subjects with SUA level >6 mg/dL at 2 consecutive visits beginning at Week 2 visit discontinued treatment, completed the End of Pegloticase Infusion Visit procedures within 2 weeks and continued the subject visits according to the protocol (without treatment).
Efficacy analyses were performed using the modified intention-to-treat (mITT) population, defined as all enrolled subjects who received ≥1 dose of pegloticase. The proportion of Month 6 responders was summarized, along with a 95% confidence interval for the proportion. The proportion of Month 3 and overall (Months 3 and 6 combined) responders was analyzed similarly.
A subject was declared a non-responder if the subject had SUA level >6 mg/dL at 2 consecutive study visits beginning with the Week 2 Visit. In addition, a subject who withdraws from study treatment for any reason after the first dose of pegloticase in the KXX+MTX Period and prior to Month 6 (for the primary endpoint) or Month 3 (for the secondary endpoint) was considered a non-responder if SUA values were not collected at the planned time points.
Patients were administered oral MTX (15 mg/week) and folate (1 mg/day) 4 weeks prior to the first pegloticase infusion (Day 1) and throughout the pegloticase treatment period. […]

[1] = Week 34 - Pre-Infusion, Month 6 sUA Responders
[2] = Week 34 - Pre-Infusion, mITT, n=10
[3] = Week 36 - Post-Infusion, Month 6 sUA Responders
[4] = Week 36 - Post-Infusion, mITT, n=6
[5] = Week 36 - Pre-Infusion, Month 6 sUA Responders
[6] = Week 36 - Pre-Infusion, mITT, n=9
[7] = Week 38 - Pre-Infusion, Month 6 sUA Responders
[8] = Week 38 - Pre-Infusion, mITT, n=5
[9] = Week 40 - Pre-Infusion, Month 6 sUA Responders
[10] = Week 40 - Pre-Infusion, mITT, n=3
[11] = Week 42 - Pre-Infusion, Month 6 sUA Responders
[12] = Week 42 - Pre-Infusion, mITT, n=3
[13] = Week 44 - Pre-Infusion, Month 6 sUA Responders

B1: pegloticase (protein)
chain: TYKKNDEVEFVRTGYGKDMIKVLHIQRDGKYHSIKEVATTVQLTLSSKKDYLHGDNSDVIPTDTIKNTVNVLAKFKGIKSIETFAVTICEHFLSSFKHVIRAQVYVEEVPWKRFEKNGVKHVHAFIYTPTGTHFCEVEQIRNGPPVIHSGIKDLKVLKTTQSGFEGFIKDQFTTLPEVKDRCFATQVYCKWRYHQGRDVDFEATWDTVRSIVLQKFAGPYDKGEYSPSVQKTLYDIQVLTLGQVPEIEDMEISLPNIHYLNIDMSKMGLINKEEVLLPLDNPYGKITGTVKRKLSSRL
modifications: monomethoxy PEG conjugated; Krystexxa Sequence
notes: covalent conjugate of uricase produced by a genetically modified strain of Escherichia coli and monomethoxypoly (ethylene glycol)
[1]
  sUA < 6 mg/dL, %: (100%)
  sUA Change from Baseline, Mean: -8.47 mg/dL
  sUA Change from Baseline, Median: -7.95 mg/dL
  sUA Observed, Mean: 0.82 mg/dL
  sUA Observed, Median: 0.30 mg/dL
[2]
  sUA < 6 mg/dL, n (%): 10 (100%)
  sUA Change from Baseline, Mean (SD): −8.47 (3.248) mg/dL
  sUA Change from Baseline, Median: -7.95 mg/dL
  sUA Observed, Mean (SD): 0.82 (1.046) mg/dL
  sUA Observed, Median: 0.30 mg/dL
[3]
  sUA < 6 mg/dL, %: (100%)
  sUA Change from Baseline, Mean: -9.38 mg/dL
  sUA Change from Baseline, Median: -9.20 mg/dL
  sUA Observed, Mean: 0.30 mg/dL
  sUA Observed, Median: 0.30 mg/dL
[4]
  sUA < 6 mg/dL, n (%): 6 (100%)
  sUA Change from Baseline, Mean (SD): −9.38 (3.799) mg/dL
  sUA Change from Baseline, Median: -9.20 mg/dL
  sUA Observed, Mean (SD): 0.30 (0.000) mg/dL
  sUA Observed, Median: 0.30 mg/dL
[5]
  sUA < 6 mg/dL, %: ( 88.9%)
  sUA Change from Baseline, Mean: -7.90 mg/dL
  sUA Change from Baseline, Median: -8.60 mg/dL
  sUA Observed, Mean: 1.58 mg/dL
  sUA Observed, Median: 0.30 mg/dL
[6]
  sUA < 6 mg/dL, n (%): 8 (88.9%)
  sUA Change from Baseline, Mean (SD): −7.90 (4.094) mg/dL
  sUA Change from Baseline, Median: -8.60 mg/dL
  sUA Observed, Mean (SD): 1.58 (2.425) mg/dL
  sUA Observed, Median: 0.30 mg/dL
[7]
  sUA < 6 mg/dL, %: (100%)
  sUA Change from Baseline, Mean: -8.41 mg/dL
  sUA Change from Baseline, Median: -8.60 mg/dL
  sUA Observed, Mean: 0.93 mg/dL
  sUA Observed, Median: 0.30 mg/dL
[8]
  sUA < 6 mg/dL, n (%): 5 (100%)
  sUA Change from Baseline, Mean (SD): −8.41 (5.229) mg/dL
  sUA Change from Baseline, Median: -8.60 mg/dL
  sUA Observed, Mean (SD): 0.93 (1.583) mg/dL
  sUA Observed, Median: 0.30 mg/dL
[9]
  sUA < 6 mg/dL, %: (100%)
  sUA Change from Baseline, Mean: -11.30 mg/dL
  sUA Change from Baseline, Median: -9.80 mg/dL
  sUA Observed, Mean: 0.30 mg/dL
  sUA Observed, Median: 0.30 mg/dL
[10]
  sUA < 6 mg/dL, n (%): 3 (100%)
  sUA Change from Baseline, Mean (SD): −11.30 (3.686) mg/dL
  sUA Change from Baseline, Median: -9.80 mg/dL
  sUA Observed, Mean (SD): 0.30 (0.000) mg/dL
  sUA Observed, Median: 0.30 mg/dL
[11]
  sUA < 6 mg/dL, %: (100%)
  sUA Change from Baseline, Mean: -11.30 mg/dL
  sUA Change from Baseline, Median: -9.80 mg/dL
  sUA Observed, Mean: 0.30 mg/dL
  sUA Observed, Median: 0.30 mg/dL
[12]
  sUA < 6 mg/dL, n (%): 3 (100%)
  sUA Change from Baseline, Mean (SD): −11.30 (3.686) mg/dL
  sUA Change from Baseline, Median: -9.80 mg/dL
  sUA Observed, Mean (SD): 0.30 (0.000) mg/dL
  sUA Observed, Median: 0.30 mg/dL
[13]
  sUA < 6 mg/dL, %: (100%)
  sUA Change from Baseline, Mean: -10.55 mg/dL
  sUA Change from Baseline, Median: -9.80 mg/dL
  sUA Observed, Mean: 1.05 mg/dL
  sUA Observed, Median: 0.30 mg/dL
